Experimental data taken from paper PMC5063618 (Molecular Biology of the Cell, 2016).
Where two headings read alike, the source gives them in different places. Values belong to the binder of their own block, whether it stands above or below them.

Experiments:
[1] = target: T1, rabbit skeletal muscle actin, as filaments (rabbit, UniProt P68135 1-377); test: co-sedimentation
[2] = target: T1, rabbit skeletal muscle actin, as …; test: co-sedimentation; remark: listed apart in the source
[3] = target: T1, rabbit skeletal muscle actin, as …; test: co-sedimentation; remark: listed apart in the source
[4] = target: T1, rabbit skeletal muscle actin, as …; test: co-sedimentation; remark: listed apart in the source
[5] = target: T1, rabbit skeletal muscle actin, as …; test: co-sedimentation; remark: listed apart in the source
AUC = target: the molecule itself; test: AUC
[6] = target: T1, rabbit skeletal muscle actin, as …; test: co-sedimentation; remark: listed apart in the source
[7] = target: T1, rabbit skeletal muscle actin, as …; test: co-sedimentation; remark: listed apart in the source
[8] = target: T1, rabbit skeletal muscle actin, as …; test: TIRF microscopy, fluorescence decay after washout
[9] = target: T1, rabbit skeletal muscle actin, as …; test: TIRF microscopy, fluorescence decay after washout; remark: listed apart in the source
[10] = target: T1, rabbit skeletal muscle actin, as …; test: TIRF microscopy, fluorescence decay after washout; remark: listed apart in the source
[11] = target: T1, rabbit skeletal muscle actin, as …; test: TIRF microscopy, fluorescence decay after washout; remark: listed apart in the source
[12] = target: T1, rabbit skeletal muscle actin, as …; test: TIRF microscopy, fluorescence decay after washout; remark: listed apart in the source
[13] = target: T1, rabbit skeletal muscle actin, as …; test: TIRF microscopy, fluorescence decay after washout; remark: listed apart in the source
[14] = target: T1, rabbit skeletal muscle actin, as …; test: TIRF microscopy, fluorescence decay after washout; remark: listed apart in the source
[15] = target: T1, rabbit skeletal muscle actin, as …; test: TIRF microscopy, fluorescence decay after washout; remark: listed apart in the source
[16] = target: T1, rabbit skeletal muscle actin, as …; test: TIRF microscopy, fluorescence decay after washout; remark: listed apart in the source
[17] = target: T1, rabbit skeletal muscle actin, as …; test: TIRF microscopy, fluorescence decay after washout; remark: listed apart in the source
[18] = target: T1, rabbit skeletal muscle actin, as …; test: TIRF microscopy, fluorescence decay after washout; remark: listed apart in the source
[19] = target: T1, rabbit skeletal muscle actin, as …; test: TIRF microscopy, fluorescence decay after washout; remark: listed apart in the source
[20] = target: T1, rabbit skeletal muscle actin, as …; test: TIRF microscopy, fluorescence decay after washout; remark: listed apart in the source

Kd [1]: 800 nM | Kd [2]: 1100 nM | Kd [3]: 2800 nM | Kd [4]: 500 nM | Kd [5]: 600 nM | Kd [6]: 200 nM | Kd [7]: 400 nM
B1: human Drp1 isoform 000 (dynamin-related protein-1), wild type (enzyme, UniProt O00429-4 1-699, looked up)
chain: MEALIPVINKLQDVFNTVGADIIQLPQIVVVGTQSSGKSSVLESLVGRDLLPRGTGIVTRRPLILQLVHVSQEDKRKTTGEENGVEAEEWGKFLHTKNKLYTDFDEIRQEIENETERISGNNKGVSPEPIHLKIFSPNVVNLTLVDLPGMTKVPVGDQPKDIELQIRELILRFISNPNSIILAVTAANTDMATSEALKISREVDPDGRRTLAVITKLDLMDAGTDAMDVLMGRVIPVKLGIIGVVNRSQLDINNKKSVTDSIRDEYAFLQKKYPSLANRNGTKYLARTLNRLLMHHIRDCLPELKTRINVLAAQYQSLLNSYGEPVDDKSATLLQLITKFATEYCNTIEGTAKYIETSELCGGARICYIFHETFGRTLESVDPLGGLNTIDILTAIRNATGPRPALFVPEVSFELLVKRQIKRLEEPSLRCVELVHEEMQRIIQHCSNYSTQELLRFPKLHDAIVEVVTCLLRKRLPVTNEMVHNLVAIELAYINTKHPDFADACGLMNNNIEEQRRNRLARELPSAVSRDKVASGGGGVGDGVQEPTTGNWRGMLKTSKAEELLAEEKSKPIPIMPASPQKGHAVNLLDVPVPVARKLSAREQRDCEVIERLIKSYFLIVRKNIQDSVPKAVMHFLVNHVKDTLQSELVGQLYKSSLLDDLLTESEDMAQRRKEAADMLKALQGASQIIAEIRETHLW
stoichiometry N (AUC): 4

t1/2 of dissociation [8]: 48.7 ± 20.6 s | t1/2 of dissociation [9]: 93.2 ± 94.5 s | t1/2 of dissociation [10]: 26.9 ± 20.6 s | t1/2 of dissociation [11]: 40 ± 20.3 s | t1/2 of dissociation [12]: 16.5 ± 2.5 s | t1/2 of dissociation [13]: 115 ± 43.5 s | t1/2 of dissociation [14]: 9.9 ± 4.4 s | t1/2 of dissociation [15]: 9.8 s | t1/2 of dissociation [16]: 4.1 ± 1.4 s | t1/2 of dissociation [17]: 8.1 ± 4.3 s | t1/2 of dissociation [18]: 93.1 ± 88 s | t1/2 of dissociation [19]: 5.4 ± 2 s | t1/2 of dissociation [20]: 84.1 ± 93.6 s
B2: GFP-Drp1 (human Drp1 isoform 000 with N-terminal GFP A206K) (enzyme)
chain: B1 chain
